According to the domain aggregation screens of Martell et al. (2025):

Assay: soluble fraction after stress (log2 fold change); higher = more stays soluble; pooled small domains, quantitative proteomics
Details: stress: 50 degC
Summary of the method: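 Quantitative proteomics served as the high-throughput read-out for pooled custom libraries of small protein domains. Each was stressed at 50°C. Aggregation propensity is expressed as the base-two log fold change in soluble protein after stress. A higher value means a larger share of the protein remains in solution.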

| Sequence | soluble fraction (log2) |
| --- | --- |
| HMSTKLLEVNIFDDSKWVNKTIMDSDIPEDILIVMIKRGDEVIVPKGSTIINKGDILVLSANNFDNLLN | -1.63 |
| HMKTGAKLKNLRKMKKLSQEEVAKVLNLSYSTLSRWENDTRIPTYEDLFKLGQFYGVSVDYLSDPN | -0.359 |
| HMIHQPNNETTRNLIAGVVKKSLSVWETRVQVDGVDVTTAKDNLAEVHINIRYRLRHNQTPASLGLRLNLG | 0.00106 |
| HMFVTFFHELKSAGVPVSLREYLTLMEAMDRDLASRRVEEFYYLARTALVKDERNLDKFDRVFGHVFKGL | -3.65 |
| HMAQRAADEARTHEILGLLRQARAALDHGGTARAARLRASIAEKLPAAPALPAWFARQLEQVDSQLAELQD | -0.432 |
| HMGPAYQTQRQEAFAALSEIAAKNPQLMQVAGDLVFRAADFPMADELADRLAKTLPPQLQDKKGQP | -0.464 |
| HMKVYPIMEAIANNNIELVKLLLEYHADLNIKDSNGNTPLALAKETGAKEVEDLLLQWMKQHT | -0.543 |
| HMEHVVFEVTESGELENNTAVKHVLNSFNNKSLNLAIDDFGTGYSNLRYIRDMMFGIIKIDRLFIKDINES | -0.018 |
| HMGISQAQAMQALRKLIEEEDKHTPLSDQTLMERLKAAGIPLARRTIAKYRESLGIPSAAQRK | -0.109 |
| HMDNIPAHIKAKIINYVNRNYPGAIIKDIERKSNGRYEAEIVYNNREYDLLFDAQGNFISASLDDK | 0.123 |
| HMGIRAFDPEAFDERLKEFFSMIAPYKKLDTRSLQPHFPHHAKEVAERIRQLAEAGKIKVDGFYISEL | -0.108 |
| HMGMVKLNEEYLEKVKKHRKELHITQLQISKKLGWSLSRYQRFESGFYKEIEDDAPKKIKEEFGIDYSLL | -0.976 |
| HMEGPALKVWKARYLRAAILEQLLSDRWDDRGGQPIRVVVNEPTNSLLIRIPRHLWPEAEKLLQELDQR | -1.02 |
| HMNVSDIENKLNEMLSPLEKKVMVLYLEGKSYVEIGELLGRHTKSVDNALQRVKRKLEIYLKNRK | -1.22 |
| HMKTFQSYQTTSMSNVNLRKRANGTSTILKRIKVGDTVTVVGKSGNYYQIQFDGKEGYALIKYIDGTDSGA | -0.247 |
| HMHLPDNAVSIISELKMTPEEVLELIGKLPHDFLFLPYSQRKKIIVDLIPNKDYKLLMSLIKKFML | -1.12 |
| HMKETLSINSTDFEVRRSSRRKRISVGFDTGTETFFIAAPTKLAGTDILRILGPQISRLMDRLT | -1.95 |
| HMESAESRVDLIGMIGEAITDLRPAGTAQFGEERIDVVSESEWITEGSTVKVVSAEGYRHVVRVME | -0.162 |
| HMQDLPPIHLSRGMTDYTLVRSRRRTLSMELKRDGTVVVHAPLRLGVEKIDAFVAAHEAWLARARTRQAER | -2.41 |
| HMTELNNTQRAAVLLLALDEDSAAEVFKHLSAREVQEVSQEMAKLGNISHDQMRQVLDDFYDESEQF | -0.0259 |

| Sequence | soluble fraction (log2) |
| --- | --- |
| HMNREYELTAEESGQRLDKYLAGEMTDLSRSRIKELVQAGEILVNGKKSKVSYKVQKDDLIQVIVLPLE | -0.285 |
| HMHHIDYKQLRRINPVAARRAVLDYLESTGGNITKTAQVFSINRSVVYDILKKQASGDLSDRLRIP | -1.32 |
| HMDAIAYLGSRLKEIRLKSGLSLREIARQLDVSPSFISQIENGKSQPSVATLYAFAKLLNVPVDVLFQPS | -1.05 |
| HMVVYFGGPVMLERGIVLHTPDISTKGTINVSDDFALTAHKEILDNINKDTSSLQFKLAIGH | -0.895 |
| HMGSIRDIIVQYLSKFDDPQPAAKIVEYVQQYRDTTESSIRSSMGSGDQFVQFSGGLYGLKDKTYAAWYSI | -0.321 |
| HMQTTPAGHELLIRYFANGNIRERGMMKDGKRNGIWIFYDESGMEIRKTKYKMGKIISDYDLN | -1.07 |
| HMELGYTPNNLRSVRAKYGLTQKQVAEITGLKTWHPVNRWEAPVEAAYHADMPHTKWLKLLDELSSR | -0.993 |
| HMDNEIIEEEKITTLMITHNMRDAIKYGNRLIMLNEGRVIFDISGEEKKNLTVQELLEKFEK | -0.118 |
| HMEKTIQIYDNIIIKDFAEKMEVSPSQVITKLIGLGVMANLNQPIDINSAVIVGKEFGFNVESM | -0.674 |
| HMTAIWKTITATLTHDIATGKYAPGDRLPTEAQLAARFGVNRHTVRRAISDMNESGLTYSRRGAGVFVAQ | -2.59 |
| HMGLVVIGTEAGYPAEKAGILAGDRIRKLNGAAVPDYDTFLTALAARKGEPSAIELERDGKTLEVTVSPL | 0.0119 |
| HMRITEQRRTLAKLFADTPGYLSPKDVYDYMGRFYPGLSFDTVYRNLRLLDELGVLEQVVFEDGVKFK | -0.718 |
| HMPSHALFWTLLKEVPGYDPHYKDVIKEGIVHEHSGGRTTSLSEMYTKYPREYSLMIEAMKG | -0.487 |
| HMVDPELFIWVESSKEPVYHLAYKIELFVHSTDPQDDVPVHRWQVFVDAHNGNILDKFDEVR | -0.159 |
| HMHPMVEAYLADLDRALSGSDPREHAETMSAVREHLADAIAPDATAEQVRHALDELGPVEAIAAG | 0.0172 |
| HMPVSVAEQKQILAEALQERGHATFRELIENADNRMIVVGRFLALLELYRDGTVRFEQERALGELTIHWEE | -0.318 |
| HMVEDIVLTDAQIEFVKQQAKNGLSAFQISEMIWPEMSVKRFSKQHVAVLDFLREYEPAYVHDSE | 0.00709 |
| HMRGDEDTGVWPTPMKRAYIDSLLKGYPTGVTMIVKPPGASHTTKWMILDGANRARALRDFMNDEFMI | -0.163 |
| HMAAEPDQQLIKPASDPVLRTMKIEELMKMSEQVKIQMSKAAKNFDYLEAARLRDEHFALENLIKLRS | 0.108 |
| HMQLKFTDLRKEILRMIWEGHGPQKAYDLLNKLQQTNPSAKPATVYRALDFLIGNGFIHKVASLNAFVG | -0.668 |

| Sequence | soluble fraction (log2) |
| --- | --- |
| HMEDESSIERYLGSGAIKGIGPSLAARIVKKFGKDTFRIIEQEPERLAEIKGISERKAMEISTLMEEK | 0.0193 |
| HMNSEERVLDTASKWLVKLDEGLDESEAQVLKVWLATPLHRDTFLEMVALWDKMSVLNELADIV | -1.78 |
| HMDVNLSIRSGETIGIIGSTGSAKSTLVQLIPRLYDTTEGEVLVGGVNVKNYDLEALRNSVAMVLQKN | -0.066 |
| HMDEPGTGFKWREDVLLRVMEANGIDTSHRDDFVRHAVKFDNDDNLYLKKAEIEDAAAAWVSEHS | 0.0272 |
| HMESRMTYLQKTKLATENLDAKLIDHQQWVAEVLGEDYRGVYSDEYLRRAAKVFAIFVNNLDD | -2.18 |
| HMDSTSEILKVIQNIVKKEDPYHPLSDDKISNLLNDLDYQISRRTVAKYRDILTIPSSSKRRKL | -0.432 |
| HMRKVTDTHELSSVVKSVIDQWEEKAAEYRAGKSGLLGFFVGEVMKKTGGAADPEAAKSLLQDRLD | 0.18 |
| HMKKKSYIVSFATDEDAQRFAREGFEVISLSGRQITVSLKGEMMPLVKALGSYQVVGLETVA | -0.19 |
| HMSILEIFGRNVQKYRKEQRLSQEKLAEYAGLHRTYIGMIERAEKNITLVNIEKIAKALNINLTKLLE | -3.14 |
| HMMKLSKRQEQIIAVVKEHQPVSGERISDILAVSRATLRSDLSFLTLSGILKASPKVGYTYES | -1.12 |
| HMQISMQNIASVKIDDLSDEQIQEFSTKYTAAGYSFPDVENVAKQKGMPSSEIEKLRQRVLTAQNTQEK | -0.163 |
| HMRVTEVSYDKFLDMLSGGQVTVVELQENERELYFKAADENGAERIYSTGVFPDADLQKRLSESGVTF | -0.025 |
| HMEQVQQIPIEELFPFKEHPFKVLDDEAMQRTVESVAQYGVLAPLIARPRPEGGYEIISGHRRQHAAELYR | -0.0852 |
| HMNGKTIEVPDITEKSIAEAQLILNQKKLRYNVVDSTRFDPAYLPFSVLTQEPEAGDEVKKNRTIYITLNP | -0.0871 |
| HMPEFKDMLKFFRMREHLSQSELAEKLGISASTVSMYEVGRRQPDFETEEKIADFFNTDLNTLRG | -0.39 |
| HMSQDPLETYYPQWSAAVKQSNPDAEIIRDTDGKYYVEGMTKNRVAVIYENPHLVRLVNATTNVHVE | 0.0542 |
| HMAIHTSVTEHGEHDLTVRMEMEQVFAIEMAVVSHEQATMLERTFKANAEAIYQKLLGVMTQEYP | -2.33 |
| HMTEPIESVTTIAGRRIPYRLVRSLRARRMRMTIKESQVTVTLPRGVPLGEAERFLQQNAAWLFKQLDKP | -2.22 |
| HMAVEETFTITWLDRDGTVLEVDENVLKGTMPSFDGHIPPHDGLEFKGWDPEVVPVEGDATYTATYKA | -0.176 |
| HMTALAVGDRVKMDKSATIYGTMRKFAAWVYATKLYVRGIDGNRVVVSTLKSGAITGAVDKKHLTK | -1.12 |
